These results are taken from article PMC4110032, “Crystal Structure of the Stress-Inducible Human Heat Shock Protein 70 Substrate-Binding Domain in Complex with Peptide Substrate” (PLoS ONE, 2014).

The target of the assay is T1, human HSP70 substrate-binding domain (residues 386–616) (human, UniProt P0DMV8 386-616).
T1 construct: Cloned into pET25 between NdeI and XhoI; The His6 tag was retained for crystallisation; A selenomethionine-derivatised form was used for phasing; also called HSP70-SBD; HSP70 SBD; source: E. coli BL21 Star (DE3), purified (Ni-NTA; size-exclusion chromatography when necessary); not shown: His6, N-terminal, kept
T1 sequence (P0DMV8 386-616): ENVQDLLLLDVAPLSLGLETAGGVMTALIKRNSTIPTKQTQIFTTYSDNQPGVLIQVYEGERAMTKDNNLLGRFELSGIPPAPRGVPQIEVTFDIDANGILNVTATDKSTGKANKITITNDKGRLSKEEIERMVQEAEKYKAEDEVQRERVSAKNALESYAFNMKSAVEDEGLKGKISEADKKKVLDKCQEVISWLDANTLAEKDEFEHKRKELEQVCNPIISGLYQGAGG
Briefly: crystal structure; co-crystallised by hanging drop vapour diffusion; 5 mM NRLLLTG mixed with 400 µM HSP70 (386–616), preheated to 42°C for 15 min and cooled to room temperature; 0.1 M Bis-Tris pH 5.5, 0.2 M Li2SO4, PEG3350; 2 Å, space group C2, two complexes per asymmetric unit. The conditions noted are these: both partners purified.

B1: NRLLLTG peptide (peptide)
peptide: NRLLLTG
notes: hepta-peptide model substrate used in earlier DnaK structural analyses; Residues of the peptide are numbered 1-7 with the suffix p (Leu5p); also called hepta-peptide model substrate; NRLLLTG substrate peptide; source: bought: Biomatik
For the molecule B1, the binding result is listed as “binds”.
